Test results taken from publication PMC5955624.

What was measured:
Assay in all cases: two-hybrid
[1] = biological target: SUMO (small ubiquitin-like modifier, encoded by pmt3) (fission yeast (Schizosaccharomyces pombe)) (UniProt O13351)
[2] = biological target: Tpz1 (fission yeast (Schizosaccharomyces pombe)) (UniProt O14246)
[3] = biological target: chimeric protein SUMO-Tpz1(243-420) (fission yeast (Schizosaccharomyces pombe)) (UniProt O14246)

Sequence of UniProt O13351 (O13351 whole entry): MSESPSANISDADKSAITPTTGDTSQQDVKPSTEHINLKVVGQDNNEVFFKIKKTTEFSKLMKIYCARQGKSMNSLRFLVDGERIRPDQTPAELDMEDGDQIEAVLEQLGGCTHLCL
Sequence of UniProt O14246 (O14246 whole entry): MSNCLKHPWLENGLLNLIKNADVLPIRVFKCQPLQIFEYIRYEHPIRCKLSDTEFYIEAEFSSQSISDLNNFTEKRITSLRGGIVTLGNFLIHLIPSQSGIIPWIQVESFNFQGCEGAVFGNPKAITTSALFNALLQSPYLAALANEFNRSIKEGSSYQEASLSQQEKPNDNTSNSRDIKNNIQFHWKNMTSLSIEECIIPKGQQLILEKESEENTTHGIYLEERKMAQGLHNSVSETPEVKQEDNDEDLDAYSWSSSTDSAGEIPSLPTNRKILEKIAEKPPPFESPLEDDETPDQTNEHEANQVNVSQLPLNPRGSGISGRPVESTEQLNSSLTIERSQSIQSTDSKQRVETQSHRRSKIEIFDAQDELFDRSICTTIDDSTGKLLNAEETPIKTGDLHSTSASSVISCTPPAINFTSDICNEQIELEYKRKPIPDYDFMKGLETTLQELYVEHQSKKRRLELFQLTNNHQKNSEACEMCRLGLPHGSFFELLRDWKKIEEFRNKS

“Ten1Stn1 fusion protein (Ten1, Gly15 linker, Stn1)” gave a β-galactosidase activity (two-hybrid) (β-galactosidase U) [1] of 50, a β-galactosidase activity (two-hybrid) (β-galactosidase U) [2] of 7 and a β-galactosidase activity (two-hybrid) (β-galactosidase U) [3] of 50.
